Reference: patent publication US20090035322A1 (Regeneron, published 2009)
Where two headings read alike, the source gives them in different places.

T1: human CD20 (human, UniProt P11836 1-297)
T1 sequence: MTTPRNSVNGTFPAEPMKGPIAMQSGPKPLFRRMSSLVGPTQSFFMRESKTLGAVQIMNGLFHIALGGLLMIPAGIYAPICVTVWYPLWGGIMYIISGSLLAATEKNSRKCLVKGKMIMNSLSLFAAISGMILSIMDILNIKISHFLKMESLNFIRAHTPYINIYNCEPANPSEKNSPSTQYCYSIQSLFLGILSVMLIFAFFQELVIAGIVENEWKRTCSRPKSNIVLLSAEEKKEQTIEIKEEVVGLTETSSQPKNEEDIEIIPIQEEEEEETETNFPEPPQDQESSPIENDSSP

T2: mutant human CD20 #5 (P172S) (human, UniProt P11836 1-297)
T2 construct: Stably expressed on MG87 cells
T2 sequence: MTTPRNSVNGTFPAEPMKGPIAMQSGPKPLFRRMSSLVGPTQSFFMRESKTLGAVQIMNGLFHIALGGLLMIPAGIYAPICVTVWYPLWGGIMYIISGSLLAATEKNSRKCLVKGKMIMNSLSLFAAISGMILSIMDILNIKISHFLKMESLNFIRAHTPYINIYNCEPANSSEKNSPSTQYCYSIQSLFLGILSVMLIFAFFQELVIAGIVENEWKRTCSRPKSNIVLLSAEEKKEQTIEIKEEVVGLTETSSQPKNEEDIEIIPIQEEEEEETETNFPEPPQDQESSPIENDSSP

T3: mutant human CD20 #7 (Y77F, N163D) (human, UniProt P11836 1-297)
T3 construct: Stably expressed on MG87 cells
T3 chain: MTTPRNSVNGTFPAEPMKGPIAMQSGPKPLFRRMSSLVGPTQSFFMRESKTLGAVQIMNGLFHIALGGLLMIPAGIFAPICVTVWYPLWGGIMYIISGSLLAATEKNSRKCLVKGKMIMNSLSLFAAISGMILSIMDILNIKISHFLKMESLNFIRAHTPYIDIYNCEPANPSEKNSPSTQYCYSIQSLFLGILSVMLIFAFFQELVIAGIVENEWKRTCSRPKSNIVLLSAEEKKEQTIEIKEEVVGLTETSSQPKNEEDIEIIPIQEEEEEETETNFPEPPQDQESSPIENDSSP

T4: mutant human CD20 #9 (N163D, N166D) (human, UniProt P11836 1-297)
T4 construct: Stably expressed on MG87 cells
T4 chain: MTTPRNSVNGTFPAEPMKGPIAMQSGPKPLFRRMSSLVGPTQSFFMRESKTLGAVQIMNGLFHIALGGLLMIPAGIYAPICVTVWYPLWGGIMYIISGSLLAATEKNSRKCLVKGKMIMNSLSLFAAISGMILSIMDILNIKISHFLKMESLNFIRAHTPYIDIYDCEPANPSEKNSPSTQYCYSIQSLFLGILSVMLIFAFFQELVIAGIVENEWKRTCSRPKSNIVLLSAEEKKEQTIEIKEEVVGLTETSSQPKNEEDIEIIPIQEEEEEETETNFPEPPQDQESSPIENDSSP

T5: mutant human CD20 #10 (A157V) (human, UniProt P11836 1-297)
T5 construct: Stably expressed on MG87 cells
T5 sequence: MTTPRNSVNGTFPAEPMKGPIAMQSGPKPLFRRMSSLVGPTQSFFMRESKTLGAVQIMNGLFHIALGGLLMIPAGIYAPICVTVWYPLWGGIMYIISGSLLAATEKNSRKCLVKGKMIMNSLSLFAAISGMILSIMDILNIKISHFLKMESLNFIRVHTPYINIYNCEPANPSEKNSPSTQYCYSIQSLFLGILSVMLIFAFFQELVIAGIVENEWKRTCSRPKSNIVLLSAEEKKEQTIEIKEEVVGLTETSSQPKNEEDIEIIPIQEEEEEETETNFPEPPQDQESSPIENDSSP


What was measured:
[1] = biological target: T1, human CD20; assay: cell-based or functional assay
[2] = biological target: T1, human CD20; assay: cell-based or functional assay; remark: listed apart in the source
[3] = biological target: T2, mutant human CD20 #5 (P172S); assay: FACS, mutant-hCD20 MG87 cells; 100%=best antibody
Method: (§1) Briefly, approximately 1×10⁶ cells from each stably transfected cell line expressing a mutant human CD20 were collected and incubated with each anti-human antibody, at 10 μg/ml, on ice for 1 hr, followed by incubation with APC-conjugated goat anti-human IgG (Jackson Immunolabs), at 10 μg/ml, on ice for 45 min. For each antibody, binding to each mutant human CD20 was assessed by flow cytometry.

[4] = biological target: T3, mutant human CD20 #7 (Y77F, N163D); assay: FACS, mutant-hCD20 MG87 cells; 100%=best antibody
Method: as §1

[5] = biological target: T4, mutant human CD20 #9 (N163D, N166D); assay: FACS, mutant-hCD20 MG87 cells; 100%=best antibody
Method: as §1

[6] = biological target: T5, mutant human CD20 #10 (A157V); assay: FACS, mutant-hCD20 MG87 cells; 100%=best antibody
Method: as §1

[7] = biological target: T1, human CD20; assay: cell-based or functional assay; remark: listed apart in the source

Row | Binder | CDC, Daudi EC50 [1] [nM] | CDC, RL EC50 [1] [nM] | % Cytotoxicity (CDC, Daudi), 0 hour [2] [%] | % Cytotoxicity (CDC, Daudi), 1 hour [2] [%] | % Cytotoxicity (CDC, Daudi), 6 hour [2] [%] | Percent of Binding to Mutant Human CD20 [3] [%] | Percent of Binding to Mutant Human CD20 [4] [%] | Percent of Binding to Mutant Human CD20 [5] [%] | Percent of Binding to Mutant Human CD20 [6] [%] | % Cytotoxicity (CDC, Daudi), 0 hour [7] [%] | % Cytotoxicity (CDC, Daudi), 1 hour [7] [%] | % Cytotoxicity (CDC, Daudi), 6 hour [7] [%]
1 | 9D4-7 (antibody, V domains shown, Fully human IgG, constant region not specified; also called 9D4-7N) VH: EVQLVESGGGLVQPGRSLRLSCAASGFTFYDYAMHWVRQAPGKGLEWVSGISWNSDTIGYADSVKGRFTISRDNAKNSLYLQMNSLRAEDTALYYCTKDGSYGHFYSGLDVWGQGTTVTVSS VL: EIVLTQSPATLSLSPGERATLSCRASQSVSSYLAWYQQKPGQAPRLLIYVASNRATGIPARFSGSGSGTDFTLTISSLEPDDFAVYYCQQRYYWPLTFGGGTKVEIK | 0.22 | 0.83 | 99.4 | 99 | 96 | 66 | 2 | 4 | 75 | – | – | –
2 | 2B7-7 (antibody, V domains shown, Fully human IgG, constant region not specified; also called 2B7-7N) VH: EVQLVESGGGLVQPGRSLRLSCAASGFTFRDYTMHWVRQGPGKGLEWVSGISWNSDYIGYADSVKGRFTISRDNAKNSLYLQMNSLRVEDTALYYCAKLSGTYRDYFYGVDVWGQGTTVTVSS VL: EIVLTQSPATLSLSPGERAALSCRASQSVSNYLAWYQQKPGQAPRLLIYDASNRATGIPARFSGSGSGTDFTLTISSLEPEDFAVYYCQQRSNWPLTFGGGTKVEIR | 0.24 | 1.03 | 99.4 | 99.4 | 98.3 | 88 | 2 | 4 | 83 | – | – | –
3 | 10E3-17 (antibody, V domains shown, Fully human IgG, constant region not specified; also called 10E3-17N) VH: EVQLVESGGGLVQPGRSLRLSCAASGFTFRDYAMHWVRQVPGKGLEWVSGISWNRGTIGYADSVKGRFTISRDNAKNSLFLQMNSLRADDTALYYCAKDHYYGSGSPYGMDVWGQGTTVTVSS VL: EIVLTQSPATLALSPGERATLSCRASQSVSKYLAWYQQKPGQAPRLLIYDASKRVTGIPGRLSGSGSGTDFTLTISSLEPEDFALYYCQQSSNWPITFGQGTRVEIK | 0.59 | 7.8 | – | – | – | 49 | 1 | 4 | 87 | 97 | 96.2 | 79.2
4 | 8G6-5 (antibody, V domains shown, Fully human IgG, constant region not specified; also called 8G6-5N) VH: EVQLAESGGDLVQSGRSLRLSCAASGITFHDYAMHWVRQPPGKGLEWVSGISWNSDYIGYADSVKGRFTISRDNAKKSLYLQMNSLRPDDTALYYCVKDFHYGSGSNYGMDVWGQGTTVTVSP VL: EIVMTQSPATLSMSPGERATLSCRASQSVSRNLAWYQQKVGQAPRLLISGASTRATGIPARFSGSGSGTEFTLTINSLQSEDFAVYYCQQSNDWPLTFGQGTRLEIK | 0.21 | 1.06 | 99.6 | 99.2 | 97.7 | 76 | 1 | 4 | 96 | – | – | –
5 | 9C11-14 (antibody, V domains shown, Fully human IgG, constant region not specified; also called 9C11-14N) VH: QVQLVESGGDSVKPGGSLRLSCAASGFTFSDSYMTWIRQAPGKGLEWVSFISSSGSTIYYADSVKGRFTISRDNVKKSLYLQMNRLRAEDTAVYYCAREEPGNYVYYGMDVWGQGTTVTVSS VL: EIVVTQSPATLSLSPGERATLSCRTSQTTTSYLAWYRQKPGQAPRLLIYDASNRAAGIPARFSGSGSGTDFTLTINSLEPEDFAVYYCQLRTNWITFGQGTRLEIK | 7.14 | 12 | 55.8 | 22.3 | 12.9 | 29 | 96 | 100 | 83 | – | – | –
6 | 6F6-1 (antibody, V domains shown, Fully human IgG, constant region not specified; also called 6F6-1N) VH: AVQLVESGGGLVQPGRSLRLSCAASGFTFRDYAMHWVRQGPGKGLEWVSGISWNTDYIGYADSVKGRFTISRDNAKNSLYLQMNSLRPEDTALYYCAKDARYGRDNYYGMDVWGQGTTVTVSS VL: EIVMTQSPATLSVSPGERATLSCRASQSVSHNLAWYQQKPGQAPRLLIYGAYTRATGIPDRFSGTGSGTEFTLTISSLQSEDFAVFYCQQYNNWPLTFGGGTKVEIK | 0.56 | 1.2 | – | – | – | 100 | 2 | 4 | 98 | 97.1 | 97.1 | 76.4
7 | 9E4-20 (antibody, V domains shown, Fully human IgG, constant region not specified; also called 9E4-20N) VH: EVQLVESGGGLVQPGRSLRLSCAASGFTFYDYAMHWVRQAPGKGLEWVSGISWNSDYIGYADSVKGRFTISRDNAKNSLYLQMNSLRAEDTALYYCAKDARYGRNNYYGMDVWGPGTTVTVSS VL: not shown | 1.53 | 1.7 | – | – | – | 57 | 1 | 3 | 76 | 67.4 | 31.2 | 49.9
8 | 10F2-13 (antibody, V domains shown, Fully human IgG, constant region not specified; also called 10F2-13N; ab 10F2-13) VH: EEQLVESGGDLVQPGRSLRLSCAASGFTFHDYTMHWVRQAPGKGLEWVSGISWNSGSLGYADSVKGRFTISRDNAKKSLYLQMNSLRAEDTALYYCAKDPSYGSGSYHSYYGMDVWGQGTTVTVSS VL: EIVLTQSPATLSLSPGERATLSCWASQSISRYLVWYQQKCGQAPRLLIYEASKRATGIPVRFSGSGSGTDFTLTISSLESEDFAVYYCQQRFNWPLTFGGGTKVEIK | 0.17 | 0.36 | 99.6 | 99.2 | 98.5 | 69 | 2 | 4 | 87 | – | – | –
